Patent US20030165468A1, “Regulated vectors for controlling DNA hypermutability in eukaryotic cells” (priority 2002, published 2003)

B1: PMS134: dominant negative mismatch repair protein, expressed from pIRES-PMS134-TK with a C-terminal V5 tag (protein, listed as Homo sapiens)
chain: RGGSGVASMERAESSSTEPAKAIKPIDRKSVHQICSGQVVLSLSTAVKELVENSLDAGATNIDLKLKDYGVDLIEVSDNGCGVEEENFEGLTLKHHTSKIQEFADLTQVETFGFRGEALSSLCALSDVTISTCHASAKVGT
modifications: C-terminal V5 tag

What was measured:
[1] = test system: cells expressing the HSV-TK gene product; experiment: Negative selection with ganciclovir of cultures containing pIRES-PMS134-TK; assay type: cell-based, human; details: HEK293 cultures with pIRES-PMS134-TK; ganciclovir for 5 days, then 10 days in growth media alone
Method: Once a hypermutable cell line is developed, it can be screened for to identify subclones with novel phenotypes for target discovery and/or product development. Once the subclone with a desired phenotype is identified, it is important to be able to restore the DNA stability within the host cell. In order to accomplish this, one must remove or completely suppress the expression of the mutator gene. Briefly, cultures are grown in the presence of the prodrug ganciclovir (Sigma), which kills cells expressing the HSV-TK gene product for 5 days. After 5 days, cells are grown for 10 days in growth media alone at which time greater than 95% of cells die off. Resistant clones are then picked and expanded in 10 cm petri dishes. Cells are grown for 3 weeks and then a portion is analyzed for PMS134 expression by western blot and RT-PCR. […] Analysis of cells after two months of culture have not observed re-expression of the PMS 134 gene using western or RT-PCR analysis (not shown). […] No de novo instable microsatellites are observed in the GR cells in contrast to the parental IRES-PMS134-TK line as expected.

293 cells = experiment: Microsatellite instability of endogenous loci using the BAT26 diagnostic marker; assay type: cell-based, human; details: PMS134 expressing 293 cells
Method: Next, selected clones expressing PMS134 are expanded and analyzed for MMR deficiency using methods as previously described. Briefly, cells containing the pIRES-PMS134-TK vector or control were measured for microsatellite instability of endogenous loci using the BAT26 diagnostic marker as described (Hoang J. M. et al. (1997) Cancer Res. 57:300-303). Cells are harvested and genomic DNA is isolated using the salting out method (Nicolaides, N. C. et al. (1991) Mol. Cell. Biol. 11:6166-6176). DNAs are diluted by limiting dilution to determine the level of sensitivity of the assay. DNAs are PCR amplified using the BAT26F: 5′-[…]-3′ (SEQ ID NO: 25) and the BAT26R: 5′-[…]-3′ (SEQ ID NO: 26) primers in buffers as described (Nicolaides, N. C. et al. (1995) Genomics 30:195-206). Briefly 1 pg to 100 ngs of DNA is amplified using the following conditions: 94° C. for 30 sec, 58° C. for 30 sec, 72° C. for 30 sec for 30 cycles. PCR reactions are electrophoresed on 12% polyacrylamide TBE gels (Novex) or 4% agarose gels and stained with ethidium bromide.
To measure for microsatellite stability in 293 cells, DNAs were amplified using the reaction conditions above.

Molecule | cells die off [1] | effect on mismatch repair (MMR) (293 cells; biochemical and genetic manifestations of MMR deficiency) | microsatellite instability (altered BAT26 alleles) (293 cells; no altered alleles in MMR-proficient control cells)
Nc1nc(O)c2ncn(COC(CO)CO)c2n1 [ganciclovir] | greater than 95% | – | –
B1 | – | robust dominant negative effect | a number of alterations
